Test results reported in patent US20090186036A1 (Biogen, published 2009).

B1: soluble recombinant human αvβ6 (receptor)
chain 1: FNLDVDSPAEYSGPEGSYFGFAVDFFVPSASSRMFLLVGAPKANTTQPGIVEGGQVLKCDWSSTRRCQPIEFDATGNRDYAKDDPLEFKSHQWFGASVRSKQDKILACAPLYHWRTEMKQEREPVGTCFLQDGTKTVEYAPCRSQDIDADGQGFCQGGFSIDFTKADRVLLGGPGSFYWQGQLISDQVAEIVSKYDPNVYSIKYNNQLATRTAQAIFDDSYLGYSVAVGDFNGDGIDDFVSGVPRAARTLGMVYIYDGKNMSSLYNFTGEQMAAYFGFSVAATDINGDDYADVFIGAPLFMDRGSDGKLQEVGQVSVSLQRASGDFQTTKLNGFEVFARFGSAIAPLGDLDQDGFNDIAIAAPYGGEDKKGIVYIFNGRSTGLNAVPSQILEGQWAARSMPPSFGYSMKGATDIDKNGYPDLIVGAFGVDRAILYRARPVITVNAGLEVYPSILNQDNKTCSLPGTALKVSCFNVRFCLKADGKGVLPRKLNFQVELLLDKLKQKGAIRRALFLYSRSPSHSKNMTISRGGLMQCEELIAYLRDESEFRDKLTPITIFMEYRLDYRTAADTTGLQPILNQFTPANISRQAHILLDCGEDNVCKPKLEVSVDSDQKKIYIGDDNPLTLIVKAQNQGEGAYEAELIVSIPLQADFIGVVRNNEALARLSCAFKTENQTRQVVCDLGNPMKAGTQLLAGLRFSVHQQSEMDTSVKFDLQIQSSNLFDKVSPVVSHKVDLAVLAAVEIRGVSSPDHVFLPIPNWEHKENPETEEDVGPVVQHIYELRNNGPSSFSKAMLHLQWPYKYNNNTLLYILHYDIDGPMNCTSDMEINPLRIKISSLQTTEKNDTVAGQGERDHLITKRDLALSEGDIHTLGCGVAQCLKIVCQVGRLDRGKSAILYVKSLLWTETFMNKENQNHSYSLKSSASFNVIEFPYKNLPIEDITNSTLVTTNVTWGIQPAPMPV
chain 2: GCALGGAETCEDCLLIGPQCAWCAQENFTHPSGVGERCDTPANLLAKGCQLNFIENPVSQVEILKNKPLSVGRQKNSSDIVQIAPQSLILKLRPGGAQTLQVHVRQTEDYPVDLYYLMDLSASMDDDLNTIKELGSRLSKEMSKLTSNFRLGFGSFVEKPVSPFVKTTPEEIANPCSSIPYFCLPTFGFKHILPLTNDAERFNEIVKNQKISANIDTPEGGFDAIMQAAVCKEKIGWRNDSLHLLVFVSDADSHFGMDSKLAGIVIPNDGLCHLDSKNEYSMSTVLEYPTIGQLIDKLVQNNVLLIFAVTQEQVHLYENYAKLIPGATVGLLQKDSGNILQLIISAYEELRSEVELEVLGDTEGLNLSFTAICNNGTLFQHQKKCSHMKVGDTASFSVTVNIPHCERRSRHIIIKPVGLGDALELLVSPECNCDCQKEVEVNSSKCHHGNGSFQCGVCACHPGHMGPRCECGEDMLSTDSCKEAPDHPSCSGRGDCYCGQCICHLSPYGNIYGPYCQCDNFSCVRHKGLLCGGNGDCDCGECVCRSGWTGEYCNCTTSTDSCVSEDGVLCSGRGDCVCGKCVCTNPGASGPTCERCPTCGDPCNSKRSCIECHLSAAGQAREECVDKCKLAGATISEEEDFSKDGSVSCSLQGENECLITFLITTDNEGKTIIHSINEKDCPKPPNIP
notes: extracellular domain; also called hsαvβ6; soluble human truncated αvβ6

Experiments:
[1] = molecular target: B1; assay: ELISA, coated hsαvβ6
Protocol: A 96-well microtiter plate (Corning COSTAR EASY-WASH) was coated with 50 μl/well of 5 μg/ml hsαᵥβ₆ at 4° C. overnight. The plate was washed with wash buffer (0.1% TWEEN-20 in PBS) four times in an automated plate washer. Then 180 μl/well of 3% BSA in TBS was added and incubated for 1 hr at 25° C. to block nonspecific binding. The plate was washed as above, and dilutions of either hybridoma supernatant (for screening assays) or purified antibody (for characterization) in TBS containing 1 mg/ml BSA, 1 mM CaCl₂, and 1 mM MgCl₂ were added (50 μl/well). The plate was incubated for 1 hr at 25° C., washed, and then incubated for 1 hr with 50 μl/well of […] goat anti-mouse IgG+A+M antibody (Cappel). Bound antibody was detected using 3,3′,5,5′-tetramethylbenzidine (TMB). Binding was indicated by the absorbency measured at 450 nm.

[2] = molecular target: T1, αvβ6 on β6-transfected FDC-P1 cells (murine, UniProt P43406 31-1044; Q9Z0T9 22-787); assay: β6-FDC-P1 cells to coated LAP, blocking
T1 construct: whole, on cells; αv is that of the murine host cell line; also called β6-FDC-P1 cells; β6-transfected murine cells
Protocol: A 96-well microtiter plate was coated with 50 μl/well of 0.5 μg/ml recombinant human LAP (R&D Systems) diluted in 50 mM sodium bicarbonate, pH 9.2 at 4° C. overnight. The plate was washed twice with PBS (100 μl/well) and blocked with 1% BSA in PBS (100 μl/well) for 1 hr at 25° C. The plate was washed twice with 100 μl/well of assay buffer (TBS complete plus 1 mM CaCl₂ and 1 mM MgCl₂). Next, to the individual wells of the plate were added 25 μl of a hybridoma supernatant (or a purified antibody) and 25 μl of β₆-FDC-P1 cells (5×10⁶ cells/ml, labeled with Calcein AM as described above). The plate was incubated at 25° C. for 1 hr, and then washed 4-6 times with the assay buffer (100 μl/well). The fluorescence emitted from cells captured on the plate was recorded. Percentage binding was determined by comparing the fluorescence signal prior to the final wash step (i.e., total cells added) to that after washing (i.e., bound cells).

[3] = molecular target: αvβ6 on β6-transfected SW480 cells (UniProt P06756 31-1048; P18564 22-788); assay: cell-based or functional assay
[4] = molecular target: B1; assay: biotin-hsαvβ6 to coated LAP, blocking
Protocol: 96-well microtiter plates (Corning COSTAR EASY-WASH) were coated with 0.3 μg/ml recombinant human LAP (R&D Systems, Cat. # 246-LP) diluted in PBS (50 μl/well) at 4° C. overnight. After the coating solution was removed, the plates were blocked with 180 μl/well of 3% BSA/TBS at 25° C. for 1 hr. […] After washing the LAP-coated plate with wash buffer (0.1% TWEEN-20 in PBS) 4 times in an automated plate washer, 100 μl of the antibody-αᵥβ₆ mixture was transferred to the plate, and incubated for 1 hr at 25° C. The plate was washed as above and incubated with 50 μl/well of a 1:1000 dilution of extravidin-horseradish peroxidase conjugate (Sigma) in TBS (1 mg/ml BSA) for 1 hr at 25° C. Bound protein was detected using the TMB substrate.
The purified antibodies were next evaluated for their ability to inhibit the αᵥβ₆-LAP interaction.

6.3G9 = molecular target: T2, 6.3G9; assay: KinExA: soluble αvβ6 titrated against 1e-10 M antibody, free antibody caught on integrin-coated beads
T2 construct: ATCC PTA-3649; also called biotinylated 6.3G9
Protocol: A series of dilutions of the soluble integrin (1×10⁻⁸ M to 2.4×10⁻¹² M) were incubated with 1×10⁻¹⁰ M of the antibody for 3 h. These samples were then passed through polymethylmethacrylate beads coated with the integrin using a KinExA instrument (Sapidyne Instruments, Inc., Boise, Id.). In the case of 6.8G6, 11 mM CaCl₂ and […] MgCl₂ were included in the incubation and assay buffers. The amounts of bound and free antibody were determined using a Cy5-labeled anti-mouse secondary antibody. Quadratic curve fitting was performed using the KinExA software to attain a dissociation constant (Kd) for each interaction. […] Thus, both of these antibodies had very high affinities for αᵥβ₆.

T1 sequence (P43406 31-1044, chain 1 of 2): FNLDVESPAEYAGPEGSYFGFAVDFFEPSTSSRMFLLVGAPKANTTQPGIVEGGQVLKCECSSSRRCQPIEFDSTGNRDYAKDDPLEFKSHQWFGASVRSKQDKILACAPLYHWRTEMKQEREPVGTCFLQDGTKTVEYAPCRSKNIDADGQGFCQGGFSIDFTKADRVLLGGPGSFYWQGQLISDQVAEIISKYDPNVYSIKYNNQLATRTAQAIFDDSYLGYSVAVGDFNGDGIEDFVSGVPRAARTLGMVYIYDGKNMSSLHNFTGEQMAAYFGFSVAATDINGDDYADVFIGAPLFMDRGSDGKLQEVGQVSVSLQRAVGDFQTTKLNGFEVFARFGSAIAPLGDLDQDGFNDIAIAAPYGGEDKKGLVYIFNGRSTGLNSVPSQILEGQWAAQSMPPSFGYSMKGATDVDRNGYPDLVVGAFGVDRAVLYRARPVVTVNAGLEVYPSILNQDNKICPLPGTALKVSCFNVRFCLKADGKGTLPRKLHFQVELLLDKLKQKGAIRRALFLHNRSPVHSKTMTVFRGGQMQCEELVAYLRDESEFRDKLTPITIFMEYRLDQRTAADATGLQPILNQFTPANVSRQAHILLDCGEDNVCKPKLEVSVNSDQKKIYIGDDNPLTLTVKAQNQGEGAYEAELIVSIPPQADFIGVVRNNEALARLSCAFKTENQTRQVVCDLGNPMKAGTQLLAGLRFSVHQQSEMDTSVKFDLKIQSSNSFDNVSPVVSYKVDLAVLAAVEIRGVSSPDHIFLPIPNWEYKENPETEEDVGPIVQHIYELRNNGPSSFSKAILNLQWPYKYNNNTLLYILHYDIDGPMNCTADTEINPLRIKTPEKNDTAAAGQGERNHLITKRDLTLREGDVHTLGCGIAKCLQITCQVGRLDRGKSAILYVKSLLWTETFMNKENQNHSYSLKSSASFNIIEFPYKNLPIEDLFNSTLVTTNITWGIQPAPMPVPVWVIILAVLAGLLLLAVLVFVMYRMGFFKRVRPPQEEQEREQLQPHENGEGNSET
T1 sequence (Q9Z0T9 22-787, chain 2 of 2): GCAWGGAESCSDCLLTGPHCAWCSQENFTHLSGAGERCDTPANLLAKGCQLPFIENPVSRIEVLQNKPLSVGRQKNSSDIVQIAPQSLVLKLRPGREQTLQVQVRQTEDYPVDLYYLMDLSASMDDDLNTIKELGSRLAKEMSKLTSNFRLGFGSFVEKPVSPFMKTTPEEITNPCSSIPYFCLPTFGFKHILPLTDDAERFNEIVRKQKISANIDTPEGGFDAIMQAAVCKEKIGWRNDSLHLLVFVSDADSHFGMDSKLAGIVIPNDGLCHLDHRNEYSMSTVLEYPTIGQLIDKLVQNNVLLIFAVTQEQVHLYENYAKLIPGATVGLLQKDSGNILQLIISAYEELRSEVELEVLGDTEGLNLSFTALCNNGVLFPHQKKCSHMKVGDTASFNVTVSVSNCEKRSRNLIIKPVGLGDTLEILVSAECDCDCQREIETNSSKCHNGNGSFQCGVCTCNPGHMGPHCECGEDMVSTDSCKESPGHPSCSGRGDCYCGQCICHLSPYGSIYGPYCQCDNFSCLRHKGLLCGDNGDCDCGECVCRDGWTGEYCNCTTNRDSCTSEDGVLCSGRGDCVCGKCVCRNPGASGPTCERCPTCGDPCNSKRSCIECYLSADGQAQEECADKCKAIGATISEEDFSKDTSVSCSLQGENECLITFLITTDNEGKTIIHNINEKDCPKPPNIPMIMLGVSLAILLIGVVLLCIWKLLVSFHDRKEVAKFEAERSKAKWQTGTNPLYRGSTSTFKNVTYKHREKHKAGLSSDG

Binder | EC50 [1] [µg/mL] | IC50 [2] [µg/mL] | PAI-1 luciferase IC50 [3] [µg/mL] | IC50 [4] [µg/mL] | IC50 (read off the curve) (6.3G9) [nM]
7.1G10 (antibody, V domains shown, ATCC PTA-3898) VH: QVQLQQSGPELVKPGASVRISCKASGYTFTSYYIHWVKQRPGQGLEWIGWLYPGKINTRYNEKFKGKATLIADKSSSTAYMQLSSLTSEDSAVYFCARHVLNGNFDYWGQGTTLTVSS VL: DIQMTQSPSSLSASLGERVSLTCRASQEISGYLSWLQQKPDGSIKRLIYAASTLDSGVPKRFSGSRSGADYSLTISSLESEDFADYYCLQYATYPYTFGGGTKLEIK | 0.0042 | 0.03 | 0.25 | 0.113 | 
B1 |  |  |  |  | ~0.05
7.7G5 (antibody, V domains shown, ATCC PTA-3899) VH: EVQLQQSGPELVKPGASVKISCKASGYSFTGYFMNWVMQSHGKSLEWIGRIKPYNGDNFYNQKFMGKATLTVDKSSSTVHMELRSLASEDSAVYYCARDRYGTYGMDYWGQGTSVTVSS VL: QIVLTQSPAIMSASPGEKVTMTCSASSSVSYMHWYQQKSGTSPKRWIYDTSKLASGVPTRFSGSGSGTSYSLTINSMEAEDAATYYCQQWSSHPPTFGAGTKLELK | 0.013 | 0.051 | 0.7 | 0.155 | 
